The labels stand for the following.
T1: RAP d3 (wild-type third domain of the receptor-associated protein) (human, UniProt P30533 235-353)
T1 construct: range 201-319 (mature RAP numbering); Expressed in E. coli from pET30(+)a; also called wild-type RAP d3; not shown: N-terminal hexahistidine and S-peptide tags of pET30(+)a
T1 sequence (looked up): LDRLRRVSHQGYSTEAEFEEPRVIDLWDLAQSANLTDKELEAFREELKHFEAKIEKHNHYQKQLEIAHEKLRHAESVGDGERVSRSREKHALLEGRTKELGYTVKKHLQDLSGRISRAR

B1: RAP d3 K270E (ligand, human, UniProt P30533 235-353, looked up)
chain: LDRLRRVSHQGYSTEAEFEEPRVIDLWDLAQSANLTDKELEAFREELKHFEAKIEKHNHYQKQLEIAHEELRHAESVGDGERVSRSREKHALLEGRTKELGYTVKKHLQDLSGRISRAR
notes: range 201-319 (mature RAP numbering); Forward mutant of m1; same construct; also called RAP K270E; not shown: N-terminal hexahistidine and S-peptide tags of pET30(+)a
B2: RAP d3 E217K (ligand, human, UniProt P30533 235-353, looked up)
chain: LDRLRRVSHQGYSTEAKFEEPRVIDLWDLAQSANLTDKELEAFREELKHFEAKIEKHNHYQKQLEIAHEKLRHAESVGDGERVSRSREKHALLEGRTKELGYTVKKHLQDLSGRISRAR
notes: range 201-319 (mature RAP numbering); Forward mutant of m1; same construct; also called RAP E217K; not shown: N-terminal hexahistidine and S-peptide tags of pET30(+)a
B3: RAP d3 E251K (ligand, human, UniProt P30533 235-353, looked up)
chain: LDRLRRVSHQGYSTEAEFEEPRVIDLWDLAQSANLTDKELEAFREELKHFKAKIEKHNHYQKQLEIAHEKLRHAESVGDGERVSRSREKHALLEGRTKELGYTVKKHLQDLSGRISRAR
notes: range 201-319 (mature RAP numbering); Forward mutant of m1; same construct; also called RAP E251K; not shown: N-terminal hexahistidine and S-peptide tags of pET30(+)a
B4: RAP d3 H249Y (ligand, human, UniProt P30533 235-353, looked up)
chain: LDRLRRVSHQGYSTEAEFEEPRVIDLWDLAQSANLTDKELEAFREELKYFEAKIEKHNHYQKQLEIAHEKLRHAESVGDGERVSRSREKHALLEGRTKELGYTVKKHLQDLSGRISRAR
notes: range 201-319 (mature RAP numbering); Forward mutant of m1; same construct; also called RAP H249Y; not shown: N-terminal hexahistidine and S-peptide tags of pET30(+)a
B5: RAP d3 K256A, K270E (ligand, human, UniProt P30533 235-353, looked up)
chain: LDRLRRVSHQGYSTEAEFEEPRVIDLWDLAQSANLTDKELEAFREELKHFEAKIEAHNHYQKQLEIAHEELRHAESVGDGERVSRSREKHALLEGRTKELGYTVKKHLQDLSGRISRAR
notes: range 201-319 (mature RAP numbering); Forward mutant of m1; same construct; also called RAP K256A, K270E; not shown: N-terminal hexahistidine and S-peptide tags of pET30(+)a
B6: MegaRAP1 d3 (designed binder)
chain: LDRLRRVSHQGYTTEAKFEEPRVIDLWDLAQSANLTDKELEAFREELKYFKAKIEAHNHYQKQLEIAHEELRHAESVGDGERVSRSREKHALLEGRTKELGYTVKKHLQDLSGRISRAR
notes: range 201-319 (mature RAP numbering); d3 of the variant selected on LRP2 CR89; also called RAPv2A d3; RAP v2A; not shown: N-terminal hexahistidine and S-peptide tags of pET30(+)a
B7: RAP d3 E251K, K270E (ligand, human, UniProt P30533 235-353, looked up)
chain: LDRLRRVSHQGYSTEAEFEEPRVIDLWDLAQSANLTDKELEAFREELKHFKAKIEKHNHYQKQLEIAHEELRHAESVGDGERVSRSREKHALLEGRTKELGYTVKKHLQDLSGRISRAR
notes: range 201-319 (mature RAP numbering); Forward mutant of m1; same construct; also called RAP E251K, K270E; not shown: N-terminal hexahistidine and S-peptide tags of pET30(+)a
B8: RAP d3 E251K, K256A, K270E (ligand, human, UniProt P30533 235-353, looked up)
chain: LDRLRRVSHQGYSTEAEFEEPRVIDLWDLAQSANLTDKELEAFREELKHFKAKIEAHNHYQKQLEIAHEELRHAESVGDGERVSRSREKHALLEGRTKELGYTVKKHLQDLSGRISRAR
notes: range 201-319 (mature RAP numbering); Forward mutant of m1; same construct; also called RAP E251K, K256A, K270E; not shown: N-terminal hexahistidine and S-peptide tags of pET30(+)a
B9: MegaRAP1 d3 T213S revertant (designed binder)
chain: LDRLRRVSHQGYSTEAKFEEPRVIDLWDLAQSANLTDKELEAFREELKYFKAKIEAHNHYQKQLEIAHEELRHAESVGDGERVSRSREKHALLEGRTKELGYTVKKHLQDLSGRISRAR
B10: MegaRAP1 d3 E270K revertant (designed binder)
chain: LDRLRRVSHQGYTTEAKFEEPRVIDLWDLAQSANLTDKELEAFREELKYFKAKIEAHNHYQKQLEIAHEKLRHAESVGDGERVSRSREKHALLEGRTKELGYTVKKHLQDLSGRISRAR
B11: MegaRAP1 d3 K217E revertant (designed binder)
chain: LDRLRRVSHQGYTTEAEFEEPRVIDLWDLAQSANLTDKELEAFREELKYFKAKIEAHNHYQKQLEIAHEELRHAESVGDGERVSRSREKHALLEGRTKELGYTVKKHLQDLSGRISRAR
B12: MegaRAP1 d3 A256K, E270K double revertant (designed binder)
chain: LDRLRRVSHQGYTTEAKFEEPRVIDLWDLAQSANLTDKELEAFREELKYFKAKIEKHNHYQKQLEIAHEKLRHAESVGDGERVSRSREKHALLEGRTKELGYTVKKHLQDLSGRISRAR
B13: MegaRAP1 d3 K251E, E270K double revertant (designed binder)
chain: LDRLRRVSHQGYTTEAKFEEPRVIDLWDLAQSANLTDKELEAFREELKYFEAKIEAHNHYQKQLEIAHEKLRHAESVGDGERVSRSREKHALLEGRTKELGYTVKKHLQDLSGRISRAR
B14: LRP2 CR89 Y1042W R1088D (receptor)
chain: PTEQCGLFSFPCKNGRCVPNYWLCDGVDDCHDNSDEQLCGTLNNTCSSSAFTCGHGECIPAHWRCDKDNDCVDGSDEHNCPTHA
notes: also called WVWD; not shown: N-terminal hexahistidine and S-peptide tag stretch of pET30(+)a
B15: LRP2 CR89 Y1042W V1047D (receptor)
chain: PTEQCGLFSFPCKNGRCVPNYWLCDGDDDCHDNSDEQLCGTLNNTCSSSAFTCGHGECIPAHWRCDKRNDCVDGSDEHNCPTHA
notes: also called WDWR; not shown: N-terminal hexahistidine and S-peptide tag stretch of pET30(+)a
B16: LRP2 CR2728 (receptor, human, UniProt P98164 3552-3631, looked up)
chain: FCRLGQFQCSDGNCTSPQTLCNAHQNCPDGSDEDRLLCENHHCDSNEWQCANKRCIPESWQCDTFNDCEDNSDEDSSHCA
notes: domain: CR2728; not shown: N-terminal hexahistidine and S-peptide tags of pET30(+)a
B17: LRP2 CR3536 (receptor)
chain: not shown
notes: domain: CR3536; the primers (LRP2CR35F, LRP2CR36R) fit CR3536; not shown: N-terminal hexahistidine and S-peptide tags of pET30(+)a

The target of one test is T2, LRP1 CR3-5 (human).
T2 construct: range 852-973; also called L1 CR3-5; LRP1 CR3-S [sic]
T2 sequence (Q07954 852-973): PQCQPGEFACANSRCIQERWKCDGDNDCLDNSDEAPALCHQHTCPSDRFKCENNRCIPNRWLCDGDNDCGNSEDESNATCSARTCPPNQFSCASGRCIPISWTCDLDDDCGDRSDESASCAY
In words: solid-phase assay, coated CR protein. Here is the method: (§1) Wells were washed with TBSTC and bound ligands detected with polyclonal anti-RAP (BP41/42, 1:1,000, BioMarin). Excess primary antibody was removed and wells washed before incubation with the secondary antibody, HRP-conjugated goat anti rabbit IgG (Bio-Rad). After washing, TMB substrate solutions (Bio-Rad) were added to detect HRP. Color development was stopped with 1N HCl. Absorption at 450 nm was measured with a microplate spectrophotometer (Molecular Devices). Data were plotted and Kd values derived by non-linear regression with the assumption of single-site binding (GraphPad Prism).
Next, the binding of RAP d3 and MegaRAP1 d3 proteins to LRP1 CR3-5 and LRP2 CR89 was assessed. […] In all cases, 10 mM EGTA prevented binding of both RAP d3 and MegaRAP1 d3 to CR proteins. Since calcium was the only divalent metal ion present in the binding buffer, this observation is consistent with both RAP d3 and MegaRAP1 d3 binding to calcium-loaded CR pairs. […] Therefore, wild-type RAP d3 and MegaRAP1 d3 have inverted binding preferences for these two receptor fragments.
As to B1, the “% max binding” value was found to be 4%.

In the case of B2, the “% max binding” value came to 91%.

As to B3, the “% max binding” value amounted to 100%.

Turning to B4, the “% max binding” value came to 90%.

Turning to B5, the “% max binding” value was 2%.

On to B6, for which the “% max binding” value came out at 4%.

Regarding B7, the “% max binding” value turned out to be 4%.

As for B8, the “% max binding” value worked out at 2%.

Regarding B9, the “% max binding” value is 2%.

For the molecule B10, the “% max binding” value is 85%.

As to B11, the “% max binding” value came out at 2%.

In the case of B12, the “% max binding” value was found to be 93%.

B13: the “% max binding” value turned out to be 16%.

Another test deals with B6. In words: solid-phase binding assay: LRP2 CR89 variant coated on the plate, d3 ligand in solution, anti-RAP detection, absorbance. Here is the method: as §1, with “RAP ligands were then incubated with the immobilized receptor at a range of concentrations for 2 hours in the above blocking buffer supplemented with 0.05% Tween-20 at room temperature. Control wells contained no added ligand. As an additional control, to determine whether the absence of calcium affected binding, 10 mM EGTA was included in the incubation medium for some samples. Wells” for “Wells”
One premise of this work was that amino acids at A, C, A′ and C′ within the calcium-binding loops of a CR pair were key determinants of binding affinity for RAP and would be similarly important for binding of RAP variants. […] Binding to both RAP d3 and MegaRAP1 d3 were measured for each LRP2 CR89 mutant by solid-phase assay. […]
B14: the binding result is recorded as “no binding (tested: 100 nM)”.

For the molecule B15, the binding result is listed as “no binding (tested: 100 nM)”.

A further test concerns the target T1, RAP d3 (wild-type third domain of the …). In words: solid-phase binding assay: CR protein coated on the plate, d3 ligand at 80 nM, anti-RAP detection, blank-corrected absorbance. As to the method: (§2) RAP d3, MegaRAP1 d3, VRAP2 d3, MatRAP1d3 and MatRAP2 d3 were each incubated at 80 nM concentrations with LRP1 CR3-5, LRP6 CR12, LRP6 CR23, LRP6 CR1-3, LRP2 CR89, LRP2 CR2728, LRP2 CR3031, LRP2 CR3435, LRP2 CR34-36, VLDLR CR78, VLDLR CR6-8, MAT CR12, MAT CR23 and MAT CR34. Samples were tested twice, in duplicate, and values combined. Means and standard deviations were then calculated. Blank values obtained from wells incubated in the absence of ligand were used to correct absorbance data.
(§3) Solid phase binding assays—Purified, refolded CR protein (1 μg) was bound to Nunc Maxisorp™ 96-well plates in TBS pH 8 supplemented with 5 mM CaCl₂ (TBSC) overnight at 4° C. Wells were washed with TBSC and then blocked with TBSC containing 2% bovine serum albumin (BSA). RAP ligands were then incubated with the immobilized receptor at a range of concentrations for 2 hours in the above blocking buffer supplemented with 0.05% Tween-20 at room temperature. Control wells contained no added ligand. As an additional control, to determine whether the absence of calcium affected binding, 10 mM EGTA was included in the incubation medium for some samples. Wells were washed with TBSTC and bound ligands detected with polyclonal anti-RAP (BP41/42, 1:1,000, BioMarin). Excess primary antibody was removed and wells washed before incubation with the secondary antibody, HRP-conjugated goat anti rabbit IgG (Bio-Rad). After washing, TMB substrate solutions (Bio-Rad) were added to detect HRP. Color development was stopped with 1N HCl. Absorption at 450 nm was measured with a microplate spectrophotometer (Molecular Devices). Data were plotted and Kd values derived by non-linear regression with the assumption of single-site binding (GraphPad Prism).
(§4) The apparent dissociation constant for binding of VRAP1d3 to VLDLR CR78 was determined to be […]. We then compared binding of RAP d3, MegaRAP1 d3, VRAP1d3, MatRAP1d3 and MatRAP2 d3, each at a concentration of 80 nM, to fourteen CR pairs or triplets, including LRP1 CR3-5, LRP2 CR89, LRP2 CR2728, LRP2 CR3031, LRP2 CR34-36, LRP2 CR3536, VLDLR CR78, VLDLR CR6-8, LRP6 CR1-3, LRP6 CR12, LRP6 CR23, MAT CR12, MAT CR23 and MAT CR34 (FIG. 7).
For the molecule B16, the binding result is on record as “no binding (tested: 80 nM)”.

A further test concerns the target B6. Described as above. As to the method:
as §2, §3, §4
With B16, the binding result is reported as “no binding (tested: 80 nM)”.

With B17, the binding result is reported as “no binding (tested: 80 nM)”.

Source of the values: patent US20090281024A1 (RAPTOR PHARMACEUTICALS, published 2009).
